Results on 9 proteins are retold here after US20140023630A1 (REGENTS OF THE UNIVERSITY OF COLORADO A BODY CORPORATE, published 2014).

The data set concerns the molecule itself. Nature of the data set: self-association; native PAGE and Western blot of E. coli lysate soluble fraction. The method, then:
Western blot analysis of crude cell lysates under both denaturing and native conditions was performed as described previously (Janosik, 2001, supra) with some modifications. Soluble fractions of E. coli lysates containing the expressed mutant proteins were mixed with sample buffer and run on a 6% native PAGE without a stacking gel. The final composition of the sample buffer was: 50 mM Tris-HCl, pH 8.9, 1 mM DTT, 10% glycerol, 0.001% bromphenol blue. Detection of heme was performed using a previously described method that relies on heme peroxidase activity (Vargas et al., 1993, Anal. Biochem. 209(2), 323-6).

B1: human CBS deletion mutant Δ1-39 (enzyme)
chain: EPLWIRPDAPSRCTWQLGRPASESPHHHTAPAKSPKILPDILKKIGDTPMVRINKIGKKFGLKCELLAKCEFFNAGGSVKDRISLRMIEDAERDGTLKPGDTIIEPTSGNTGIGLALAAAVRGYRCIIVMPEKMSSEKVDVLRALGAEIVRTPTNARFDSPESHVGVAWRLKNEIPNSHILDQYRNASNPLAHYDTTADEILQQCDGKLDMLVASVGTGGTITGIARKLKEKCPGCRIIGVDPEGSILAEPEELNQTEQTTYEVEGIGYDFIPTVLDRTVVDKWFKSNDEEAFTFARMLIAQEGLLCGGSAGSTVAVAVKAAQELQEGQRCVVILPDSVRNYMTKFLSDRWMLQKGFLKEEDLTEKKPWWWHLRVQELGLSAPLTVLPTITCGHTIEILREKGFDQAPVVDEAGVILGMVTLGNMLSSLLAGKVQPSDQVGKVIYKQFKQIRLTDTLGRLSHILEMDHFALVVHEQIQYHSTGKSSQRQMVFGVVTAIDLLNFVAAQERDQK
notes: The sense primer brings in an Nco I site at the 5' end; No fusion partner, E. coli lysate; Reported as a tetramer; also called pKK CBS Δ1-39
As for B1, the binding result is given as “binds”.

B2: human CBS deletion mutant Δ442-551 (enzyme)
chain: MPSETPQAEVGPTGCPHRSGPHSAKGSLEKGSPEDKEAKEPLWIRPDAPSRCTWQLGRPASESPHHHTAPAKSPKILPDILKKIGDTPMVRINKIGKKFGLKCELLAKCEFFNAGGSVKDRISLRMIEDAERDGTLKPGDTIIEPTSGNTGIGLALAAAVRGYRCIIVMPEKMSSEKVDVLRALGAEIVRTPTNARFDSPESHVGVAWRLKNEIPNSHILDQYRNASNPLAHYDTTADEILQQCDGKLDMLVASVGTGGTITGIARKLKEKCPGCRIIGVDPEGSILAEPEELNQTEQTTYEVEGIGYDFIPTVLDRTVVDKWFKSNDEEAFTFARMLIAQEGLLCGGSAGSTVAVAVKAAQELQEGQRCVVILPDSVRNYMTKFLSDRWMLQKGFLKEEDLTEKKPWWWHLRVQELGLSAPLTVLPTITCGHTIEILREK
notes: No fusion partner, E. coli lysate; Reported as a dimer
Regarding B2, the binding result is “binds”.

B3: human CBS double deletion mutant Δ1-70 Δ401-551 (expressed without fusion partner) (enzyme)
chain: AKSPKILPDILKKIGDTPMVRINKIGKKFGLKCELLAKCEFFNAGGSVKDRISLRMIEDAERDGTLKPGDTIIEPTSGNTGIGLALAAAVRGYRCIIVMPEKMSSEKVDVLRALGAEIVRTPTNARFDSPESHVGVAWRLKNEIPNSHILDQYRNASNPLAHYDTTADEILQQCDGKLDMLVASVGTGGTITGIARKLKEKCPGCRIIGVDPEGSILAEPEELNQTEQTTYEVEGIGYDFIPTVLDRTVVDKWFKSNDEEAFTFARMLIAQEGLLCGGSAGSTVAVAVKAAQELQEGQRCVVILPDSVRNYMTKFLSDRWMLQKGFLKEE
notes: pKK construct; E. coli lysate; Reported as a dimer; also called CBS DD
Take B3: the binding result was “binds”.

B4: human CBS deletion mutant Δ489-551 (enzyme)
chain: MPSETPQAEVGPTGCPHRSGPHSAKGSLEKGSPEDKEAKEPLWIRPDAPSRCTWQLGRPASESPHHHTAPAKSPKILPDILKKIGDTPMVRINKIGKKFGLKCELLAKCEFFNAGGSVKDRISLRMIEDAERDGTLKPGDTIIEPTSGNTGIGLALAAAVRGYRCIIVMPEKMSSEKVDVLRALGAEIVRTPTNARFDSPESHVGVAWRLKNEIPNSHILDQYRNASNPLAHYDTTADEILQQCDGKLDMLVASVGTGGTITGIARKLKEKCPGCRIIGVDPEGSILAEPEELNQTEQTTYEVEGIGYDFIPTVLDRTVVDKWFKSNDEEAFTFARMLIAQEGLLCGGSAGSTVAVAVKAAQELQEGQRCVVILPDSVRNYMTKFLSDRWMLQKGFLKEEDLTEKKPWWWHLRVQELGLSAPLTVLPTITCGHTIEILREKGFDQAPVVDEAGVILGMVTLGNMLSSLLAGKVQPSDQVGKVIYKQFK
notes: as for B2
As to B4, the binding result was “binds”.

B5: human CBS deletion mutant Δ497-551 (enzyme)
chain: MPSETPQAEVGPTGCPHRSGPHSAKGSLEKGSPEDKEAKEPLWIRPDAPSRCTWQLGRPASESPHHHTAPAKSPKILPDILKKIGDTPMVRINKIGKKFGLKCELLAKCEFFNAGGSVKDRISLRMIEDAERDGTLKPGDTIIEPTSGNTGIGLALAAAVRGYRCIIVMPEKMSSEKVDVLRALGAEIVRTPTNARFDSPESHVGVAWRLKNEIPNSHILDQYRNASNPLAHYDTTADEILQQCDGKLDMLVASVGTGGTITGIARKLKEKCPGCRIIGVDPEGSILAEPEELNQTEQTTYEVEGIGYDFIPTVLDRTVVDKWFKSNDEEAFTFARMLIAQEGLLCGGSAGSTVAVAVKAAQELQEGQRCVVILPDSVRNYMTKFLSDRWMLQKGFLKEEDLTEKKPWWWHLRVQELGLSAPLTVLPTITCGHTIEILREKGFDQAPVVDEAGVILGMVTLGNMLSSLLAGKVQPSDQVGKVIYKQFKQIRLTDTL
notes: as for B2
Take B5: the binding result is listed as “binds”.

B6: human CBS deletion mutant Δ551 (enzyme)
chain: MPSETPQAEVGPTGCPHRSGPHSAKGSLEKGSPEDKEAKEPLWIRPDAPSRCTWQLGRPASESPHHHTAPAKSPKILPDILKKIGDTPMVRINKIGKKFGLKCELLAKCEFFNAGGSVKDRISLRMIEDAERDGTLKPGDTIIEPTSGNTGIGLALAAAVRGYRCIIVMPEKMSSEKVDVLRALGAEIVRTPTNARFDSPESHVGVAWRLKNEIPNSHILDQYRNASNPLAHYDTTADEILQQCDGKLDMLVASVGTGGTITGIARKLKEKCPGCRIIGVDPEGSILAEPEELNQTEQTTYEVEGIGYDFIPTVLDRTVVDKWFKSNDEEAFTFARMLIAQEGLLCGGSAGSTVAVAVKAAQELQEGQRCVVILPDSVRNYMTKFLSDRWMLQKGFLKEEDLTEKKPWWWHLRVQELGLSAPLTVLPTITCGHTIEILREKGFDQAPVVDEAGVILGMVTLGNMLSSLLAGKVQPSDQVGKVIYKQFKQIRLTDTLGRLSHILEMDHFALVVHEQIQYHSTGKSSQRQMVFGVVTAIDLLNFVAAQERDQ
notes: Lacks the C-terminal lysine; No fusion partner, E. coli lysate; Reported as a tetramer; also called pKK CBS Δ551
In the case of B6, the binding result is given as “binds”.

B7: human CBS deletion mutant Δ544-551 (enzyme)
chain: MPSETPQAEVGPTGCPHRSGPHSAKGSLEKGSPEDKEAKEPLWIRPDAPSRCTWQLGRPASESPHHHTAPAKSPKILPDILKKIGDTPMVRINKIGKKFGLKCELLAKCEFFNAGGSVKDRISLRMIEDAERDGTLKPGDTIIEPTSGNTGIGLALAAAVRGYRCIIVMPEKMSSEKVDVLRALGAEIVRTPTNARFDSPESHVGVAWRLKNEIPNSHILDQYRNASNPLAHYDTTADEILQQCDGKLDMLVASVGTGGTITGIARKLKEKCPGCRIIGVDPEGSILAEPEELNQTEQTTYEVEGIGYDFIPTVLDRTVVDKWFKSNDEEAFTFARMLIAQEGLLCGGSAGSTVAVAVKAAQELQEGQRCVVILPDSVRNYMTKFLSDRWMLQKGFLKEEDLTEKKPWWWHLRVQELGLSAPLTVLPTITCGHTIEILREKGFDQAPVVDEAGVILGMVTLGNMLSSLLAGKVQPSDQVGKVIYKQFKQIRLTDTLGRLSHILEMDHFALVVHEQIQYHSTGKSSQRQMVFGVVTAIDLLNFV
notes: No fusion partner, E. coli lysate; Reported as a tetramer
In the case of B7, the binding result is on record as “binds”.

B8: human CBS deletion mutant Δ1-70 (enzyme)
chain: AKSPKILPDILKKIGDTPMVRINKIGKKFGLKCELLAKCEFFNAGGSVKDRISLRMIEDAERDGTLKPGDTIIEPTSGNTGIGLALAAAVRGYRCIIVMPEKMSSEKVDVLRALGAEIVRTPTNARFDSPESHVGVAWRLKNEIPNSHILDQYRNASNPLAHYDTTADEILQQCDGKLDMLVASVGTGGTITGIARKLKEKCPGCRIIGVDPEGSILAEPEELNQTEQTTYEVEGIGYDFIPTVLDRTVVDKWFKSNDEEAFTFARMLIAQEGLLCGGSAGSTVAVAVKAAQELQEGQRCVVILPDSVRNYMTKFLSDRWMLQKGFLKEEDLTEKKPWWWHLRVQELGLSAPLTVLPTITCGHTIEILREKGFDQAPVVDEAGVILGMVTLGNMLSSLLAGKVQPSDQVGKVIYKQFKQIRLTDTLGRLSHILEMDHFALVVHEQIQYHSTGKSSQRQMVFGVVTAIDLLNFVAAQERDQK
notes: The sense primer brings in an Nco I site at the 5' end; No fusion partner, E. coli lysate; Reported as a tetramer; also called pKK CBS Δ1-70
As for B8, the binding result is on record as “binds”.

B9: human CBS deletion mutant Δ414-551 (enzyme)
chain: MPSETPQAEVGPTGCPHRSGPHSAKGSLEKGSPEDKEAKEPLWIRPDAPSRCTWQLGRPASESPHHHTAPAKSPKILPDILKKIGDTPMVRINKIGKKFGLKCELLAKCEFFNAGGSVKDRISLRMIEDAERDGTLKPGDTIIEPTSGNTGIGLALAAAVRGYRCIIVMPEKMSSEKVDVLRALGAEIVRTPTNARFDSPESHVGVAWRLKNEIPNSHILDQYRNASNPLAHYDTTADEILQQCDGKLDMLVASVGTGGTITGIARKLKEKCPGCRIIGVDPEGSILAEPEELNQTEQTTYEVEGIGYDFIPTVLDRTVVDKWFKSNDEEAFTFARMLIAQEGLLCGGSAGSTVAVAVKAAQELQEGQRCVVILPDSVRNYMTKFLSDRWMLQKGFLKEEDLTEKKPWWWHLR
notes: Lacks the entire C-terminal regulatory region; No fusion partner, E. coli lysate; Reported as a dimer
In the case of B9, the binding result is on record as “binds”.
